Source: US20240218071A1
Blank lines part the entries; values can stand above or below the binder they belong to.

Key:
[1] = biological target: P17-Fc fusion protein (human CD40 extracellular domain fused to human IgG1 Fc) (human) (UniProt P25942); assay: ELISA, P17-Fc against titrated antibody
[2] = biological target: biotinylated P17-Fc fusion protein (human) (UniProt P25942); assay: ELISA, biotinylated P17-Fc against titrated antibody
[3] = biological target: P17-Fc fusion protein (human CD40 extracellular domain fused to human IgG1 Fc) (human) (UniProt P25942); assay: ELISA, unbiotinylated P17-Fc against titrated antibody
[4] = biological target: P17-Fc fusion protein (human CD40 extracellular domain fused to human IgG1 Fc) (human) (UniProt P25942); assay: ELISA on P17-Fc, positive control
[5] = biological target: human CD40 expressed on the cell surface (human) (UniProt P25942); assay: flow cytometry on CHO-K-huCD40 cells, APC anti-human IgG Fc secondary antibody
Sequence of human CD40 expressed on the cell surface (human) (P25942 21-277): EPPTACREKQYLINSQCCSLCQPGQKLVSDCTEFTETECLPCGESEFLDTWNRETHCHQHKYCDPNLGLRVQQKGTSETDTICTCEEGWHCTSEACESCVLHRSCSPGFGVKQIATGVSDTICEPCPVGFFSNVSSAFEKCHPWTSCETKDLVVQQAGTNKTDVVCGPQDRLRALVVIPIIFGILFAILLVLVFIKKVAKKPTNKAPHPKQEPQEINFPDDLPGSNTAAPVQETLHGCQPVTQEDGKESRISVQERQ

[6] = biological target: human CD40 expressed on the cell surface (human) (UniProt P25942); assay: blocking assay by flow cytometry: CHO-K-huCD40 cells with titrated antibody, then CD40L-biotin (200 ng/mL) and PE-streptavidin; blocked ligand CD40L

Sequence of P17-Fc fusion protein (human CD40 extracellular domain fused to human IgG1 Fc) (human) (P25942 21-193 limits assumed): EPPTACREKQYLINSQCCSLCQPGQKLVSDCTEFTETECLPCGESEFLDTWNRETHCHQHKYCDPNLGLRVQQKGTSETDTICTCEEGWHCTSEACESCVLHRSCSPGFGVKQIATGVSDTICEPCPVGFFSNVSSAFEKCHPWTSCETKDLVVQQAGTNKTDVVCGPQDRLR
Sequence of biotinylated P17-Fc fusion protein (human) (P25942 21-193 limits assumed): as above

EC50 (read off the curve) [1]: 0.3 µg/mL
EC50 (read off the curve) [2]: 0.08 µg/mL
EC50 (read off the curve) [3]: 0.08 µg/mL
B1: Dacetuzumab (antibody, INN chains, looked up, V domains shown)
VH: EVQLVESGGGLVQPGGSLRLSCAASGYSFTGYYIHWVRQAPGKGLEWVARVIPNAGGTSYNQKFKGRFTLSVDNSKNTAYLQMNSLRAEDTAVYYCAREGIYWWGQGTLVTVSS
VL: DIQMTQSPSSLSASVGDRVTITCRSSQSLVHSNGNTFLHWYQQKPGKAPKLLIYTVSNRFSGVPSRFSGSGSGTDFTLTISSLQPEDFATYFCSQTTHVPWTFGQGTKVEIKR

EC50 [4]: 0.047 µg/mL
EC50 (read off the curve) [1]: 0.2 µg/mL
EC50 (read off the curve) [2]: 0.08 µg/mL
EC50 (read off the curve) [3]: 0.08 µg/mL
EC50 (read off the curve) [5]: 0.7 µg/mL
IC50 (read off the curve) [6]: 1 µg/mL
B2: Bleslumab (antibody, INN chains, looked up, V domains shown)
VH: QLQLQESGPGLLKPSETLSLTCTVSGGSISSPGYYGGWIRQPPGKGLEWIGSIYKSGSTYHNPSLKSRVTISVDTSKNQFSLKLSSVTAADTAVYYCTRPVVRYFGWFDPWGQGTLVTVSS
VL: AIQLTQSPSSLSASVGDRVTITCRASQGISSALAWYQQKPGKAPKLLIYDASNLESGVPSRFSGSGSGTDFTLTISSLQPEDFATYYCQQFNSYPTFGQGTKVEIK
